From article PMC5533101 (Journal of Alzheimer's disease : JAD, 2004)

Biological target: AβO(1-42), oligomeric non-fibrillar Aβ prepared from the peptide Aβ_(1-42) (UniProt P05067 672-713)
Experiment: SPR

B1: TR#2, recombinant TR segment containing the extracellular domain (ectodomain) (domain or fragment, UniProt Q9UIK5 56-301, looked up)
chain: CSGYDDRENDLFLCDTNTCKFDGECLRIGDTVTCVCQFKCNNDYVPVCGSNGESYQNECYLRQAACKQQSEILVVSEGSCATDAGSGSGDGVHEGSGETSQKETSTCDICQFGAECDEDAEDVWCVCNIDCSQTNFNPLCASDGKSYDNACQIKEASCQKQEKIEVMSLGRCQDNTTTTTKSEDGHYARTDYAENANKLEESAREHHIPCPEHYNGFCMHGKCEHSINMQEPSCRCDAGYTGQHCE
  Kd: 76.8 nM
